Experiments:
[1] = heat stability of amidase 2 at 80° C.; format: biochemical; details: 5-30 min pre-incubation at 80° C., pH7.0
Experimental: The pre-incubation mixture in a 1.5 ml ependorpf tube contained 5 μl of the amidase 2 mixture (155 μg protein/ml), and 45 μl 67 mM phosphate buffer pH7.0. The samples were pre-incubated at 80° C. for 0, 5, 10, 15, 20, 25 and 30 min. After cooling to 15° C., 50 μl 67 mM phosphate buffer and 25 μl OTA (1 μg/ml) were added to start the reaction this was incubated at 30° C. for 60 min, the reaction was stopped by the addition of 130 μl acetonitrile containing 0.2% HAC. An injection volume of 10 μl was used for RP-HPLC analysis of remaining OTA after filtering.
The reaction mixture of 5 μl enzyme plus 45 μl 68 mM sodium phosphate (pH7.0) was incubated at 80° C. for 0-30 min before adding another 50 μl the phosphate buffer and 25 μl 1 μg/ml OTA, and incubated at 30° C. for 60 min. The reaction was stopped by adding 130 μl acetonitrile containing 0.2% acetic acid (v/v). The reaction mixture was filtered and injected (10 μl) for HPLC analysis. Ctrl was control where no amidase was added.

[2] = pH and temperature stability of amidase 2 at 70° C.; format: biochemical; details: between pH 6 and 9; pre-incubated 30 min; stability decreased with the decrease in pH
Experimental: The reaction mixture contained 5 μl amidase 2 mixture (155 μg protein/ml), 45 μl 67 mM phosphate buffer at either pH3, 4, 5, 6, 7, 8 or 9. The reaction mixes were incubated at 70° C. for 30 min, before 2 μl 0.5 mg/ml OTA in ethanol and 80 μl 0.2M Mops pH 7.0 were added and the samples incubated at 30° C. for 60 min. The reaction was stopped by adding 130 μl acetonitrile containing 0.2% HAC, filtered and analysed by RP-HPLC.
Further more the recombinant amidase 2 was quite stable at 70° C. between pH 6 and 9. The stability decreased with the decrease in pH (FIG. 13). Activity was assayed at pH 7.0 and 30° C. The pre-incubation mixture contained 5 μl amidase 2 mixture (155 μg protein/ml), 45 μl 67 mM phosphate buffer (pH3, 4, 5, 6, 7, 8 and 9). The samples were pre-incubated at 70° C. for 30 min. After cooling to 30° C., 2 μl 0.5 mg/ml OTA in ethanol and 80 μl 0.2M Mops-NaOH (pH 7.0) were added and the reaction incubated at 30° C. for 60 min. The reaction was stopped by adding 130 μl acetonitrile containing 0.2% HAC, filtered and injected on RP-HPLC with an injection of 5 μl to monitor the remaining OTA.

[3] = pH optimum of amidase 2 in degrading OTA; format: biochemical; details: 30° C., 60 min; followed by pH 6 and 8; pH 5 and 9
Experimental: The reaction mixture contained 5 μl amidase 2 mixture (a mixture of the intracellular fractions of transformant 3, 4, 7-8, 10-11 and 13-15) with a protein concentration of 155 μg protein/ml), 0.1 ml 67 mM phosphate buffer (pH3, 4, 5, 6, 7, 8 and 9), 25 μl OTA (1 μg/ml). The reaction was performed at 30° C. for 60 min and stopped by the addition of 0.13 ml acetonitrile containing 0.2% HAC. An injection volume of 10 μl was used for RP-HPLC analysis of remaining OTA after filtering.
Five microliters of enzyme solution were combined with […] OTA 1 μg/mL diluted in different buffers: 50 mM sodium acetate buffer (pH 4, 4.5, 5 and 5.5); 50 mM MES-NaOH buffer (pH 6, 6.5 and 7); 50 mM Tris-HCl buffer (pH 7.5, 8 and 8.5).

[4] = degradation of OTA in corn flour by amidase 2 sig; format: biochemical; details: 800 ppb at the start, 3.1 μg protein, 37° C., 22 hr
Experimental: For corn flour, 50 mg corn flour was added 210 μl water, 8 μl OTA (25 μg/ml) and 20 μl amidase 2 sig (3.1 μg protein), mixed and incubated at 37° C. for 22 hr. The OTA concentration decreased from 800 ppb at the start to 14 ppb at the end. OTA analysis by HPLC is described in the materials and methods section above.

[5] = degradation of OTA in DDGS by amidase 2 sig; format: biochemical; details: DDGS slurry pH 6.7; 800 ppb at start; 3.1 μg protein; 37° C., 22 hr
Experimental: For DDGS, 1 g was suspended in 10 ml water, pH adjusted to 6.7 with NaOH. To 210 μl of this slurry was added 8 μl OTA (25 μg/ml) and 20 μl amidase 2 sig (3.1 μg protein), mixed and incubated at 37° C. for 22 hr. The OTA concentration decreased from 800 ppb at start to 5 ppb at the end. OTA analysis by HPLC was described in the materials and methods section above.

[6] = sensitivity of OTA hydrolysis to CaCl2 and EDTA; format: biochemical
Experimental: One protease inhibitor cocktail (PIC) tablet (Roche Applied Science, Mannhein, Germany) was dissolved in 1.5 mL. milliQ water to obtain a 7× stock solution. For formamidase inhibition assay, instead of 100 μL milliQ water normally employed, 20 μL of 7×PIC stock solution and 80 μL of milliQ water were mixed with other components listed in formamidase activity assay section. For OTA degrading activity, 35 μL 7×PIC solution were mixed with 210 μL OTA 1 μg/mL and 5 μL enzyme solution. […] For controls, inhibitor solution is replaced either by milliQ water for formamidase activity assay or MES-NaOH pH7 buffer for OTA degrading activity.
Also it is known that the OTA degrading activity in the Amano™ lipase product is sensitive to EDTA.
[…] The reaction was performed at 37° C. for 30 min and stopped by adding 150 μl acetonitrile containing 0.2% acetic acid. OTA and its product OT-alpha (=ODα) were analyzed on RP-HPLC on C18 column with an injection of 5 μl. Positive control (PC) contained no additives other than the buffer the amidase and OTA. Blank contained only buffer and OTA.

[7] = format: biochemical; details: same concentration, optimum conditions, one hour
Experimental: The enzyme solution of Amidase 2 mat obtained after AEX was tested on ochratoxin B at the same concentration under optimum conditions for one hour. The degrading rate with ochratoxin B was 8% compared to OTA.

[8] = detoxification of OTA in corn-soy based feed by amidase 2 mat; format: biochemical; details: from 38 ppm, 20 hr incubation
Experimental: (§1) The reaction mixture in 1.5 ml eppendorf tubes (C1-3) comprised 60 mg corn flower, 200 μl Mops-NaOH (0.2 M pH7.0), 40 μl amidase 2 mixture (which was mixture of an equal volume of the broth of A. niger transformant having amdiase 2 gene 3, 4, 7, 8, 10, 11, 13, 14, and 15), 20 μl OTA (0.5 mg/ml). Total volume of the three components was 260 μl; final OTA was 38 μg/ml or 38 ppm (ppm, parts per million). Control: Tubes of Controls (C-4-6) were the same as C1-3 except that the amidase preparation (the broth) was replaced with water.
(§2) The reaction was performed at 30° C. with skaking for 20 hr before the addition of equal volume of acetonitrile 260 μl containing 0.2% acetic acid to stop the reaction and to extract the OTA. After centrifugation and filter, the filtrate was analyzed on HPLC.
The tests of amidase 2 mat with soy-corn based feed (whose composition is given in Table 3) contaminated with OTA was exactly as the test with corn flour, that is, tubes S1-3 (experimental) were with the broth while for tubes S 5-6 (controls) water replaced the broth. After 20 hr incubation, the OTA level was reduced from 38 ppm to 6.6 ppm, a reduction of 6 times or 82%.

[9] = degradation of OTA in milk by amidase 2 mat; format: biochemical; details: light milk; 47 ppb at start; 0.22 μg protein; 40° C., 2.5 hr
Experimental: Light milk (1.5% fat, protein 3.4 g, carbohydrate 4.7 g Calcium 120 mg, Phosphorus 95 mg in 100 ml) from Aria Foods Amba (Aarhus, Denmark) 0.15 ml, 3 μl OTA (2.5 μg/ml), 7.5 μl purified amidase 2 mat (from the broth of A. niger harboring the amidase 2 gene) containing 0.22 μg protein were mixed and reacted at 40° C. for 2.5 hr. The OTA decreased from 47 ppb at start to undetectable level (<2 ppb) after 2.5 hr incubation. OTA analysis by HPLC was described in the materials and methods section above.

[10] = OTA degradation as a function of amidase 2 mat concentration; format: biochemical
Experimental: The amidase used was purified from the broth of transformant 13 (438aa protein referred to as amidase 2 mat).
Ochratoxin A (OTA) degrading activity of amidase 2 mat purified from the fermentation broth of A. niger harboring the amidase 2 gene as a function of its concentration is shown in FIG. 15. It can be seen from FIG. 15 that the degradation of OTA was amidase 2 mat concentration dependent. One can also see that after 30 min with an amidase 2 mat concentration of 160 ng/ml the OTA decreased by 83%. From the linear region of FIG. 15 the calculated specific activity for amidase 2 mat was 900 nanomole OTA hydrolyzed per min per mg protein at pH7.0 and 40° C. at an OTA concentration of 1 μg/ml reaction mixture. The reaction for FIG. 15 was performed in 0.1 Mops-NaOH (pH 7.0) and 40° C. for 30 min before it was stopped by adding equal volume of acetonitrile containing 0.2% acetic acid and analyzed on RP-HPLC on a C18 column as described in the Material and Method section.

[11] = detoxification of OTA in corn flour by amidase 2 mat; format: biochemical; details: from 38 ppm, 30° C., 20 hr, pH7.0
Experimental: as §1, §2

B1: recombinant amidase 2: amidase 2 from transgenic A. niger intracellular preparation, a mixture of intracellular fractions of transformants 3, 4, 7-8, 10-11 and 13-15 (protein)
chain: MVRRIASATPMVQSPMSPLGTTYCVRPNPVSLNLQRRPLVIASTDEAKVTIIYAGLLIPGDGEPLRNAALVISDKIIAFVGSEADIPKKYLRSTQSTHRVPVLMPGLWDCHMHFGGDDDYYNDYTSGLATHPASSGARLARGCWEALQNGYTSYRDLAGYGCEVAKAINDGTIVGPNVYSSGAALSQTAGHGDIFALPAGEVLGSYGVMNPRPGYWGAGPLCIADGVEEVRRAVRLQIRRGAKVIKVMASGGVMSRDDNPNFAQFSPEELKVIVEEAARQNRIVSAHVHGKAGIMAAIKAGCKSLEHVSYADEEVWELMKEKGILYVATRSVIEIFLASNGEGLVKESWAKLQALADSHLKAYQGAIKAGVTIALGTDTAPGGPTALELQFAVERGGMTPLEAIKAATANAPLSVGPQAPLTGQLREGYEADVIALEENPLEDIKVFQEPKAVTHVWKGGKLFKGPGIGPWGEDARNPFL
modifications: Aspergillus niger
**Q.** Which results are given for B1?
**A.** activity remained after pre-incubation [1]: more than 80%; stability at 70° C. [2]: quite stable; pH of highest enzyme activity [3]: 7.0 pH

B2: amidase 2 sig: full length 480 amino acid A. niger amidase 2 with N-terminal or signal sequence, MW about 51 kDa; intracellular fraction (protein)
chain: B1 chain
modifications: Aspergillus niger
notes: intracellular fraction
**Q.** Which “OTA concentration at the end” value [4] does the source give for B2 here?
**A.** 14 ppb

**Q.** What about the “OTA concentration at the end” value [5] of the same molecule?
**A.** 5 ppb

**Q.** And the “inhibition by CaCl2” value ([6]; 8 mM CaCl2, intracellular fraction of transgenic A. niger)?
**A.** not appreciably inhibited

**Q.** What about the “inhibition by CaCl2” value ([6]; 20 mM CaCl2, 37° C., 30 min, pH7.0) of the same molecule?
**A.** no inhibition

**Q.** And the “inhibition by EDTA” value ([6]; 20 mM EDTA, 37° C., 30 min, pH7.0)?
**A.** no inhibition

B3: amidase 2 mat: secreted mature 438 amino acid amidase 2 from A. niger, MW about 47 kDa, N-terminal 42 amino acids cleaved (protein)
chain: STDEAKVTIIYAGLLIPGDGEPLRNAALVISDKIIAFVGSEADIPKKYLRSTQSTHRVPVLMPGLWDCHMHFGGDDDYYNDYTSGLATHPASSGARLARGCWEALQNGYTSYRDLAGYGCEVAKAINDGTIVGPNVYSSGAALSQTAGHGDIFALPAGEVLGSYGVMNPRPGYWGAGPLCIADGVEEVRRAVRLQIRRGAKVIKVMASGGVMSRDDNPNFAQFSPEELKVIVEEAARQNRIVSAHVHGKAGIMAAIKAGCKSLEHVSYADEEVWELMKEKGILYVATRSVIEIFLASNGEGLVKESWAKLQALADSHLKAYQGAIKAGVTIALGTDTAPGGPTALELQFAVERGGMTPLEAIKAATANAPLSVGPQAPLTGQLREGYEADVIALEENPLEDIKVFQEPKAVTHVWKGGKLFKGPGIGPWGEDARNPFL
modifications: Aspergillus niger
notes: secreted mature 438 amino acid amidase 2 from A. niger, MW about 47 kDa, N-terminal 42 amino acids cleaved
**Q.** For B3, which “degrading rate with ochratoxin B compared to OTA” value [7] is on record?
**A.** 8%

**Q.** What about the “OTA level after incubation” value [8] of the same molecule?
**A.** 6.6 ppm

**Q.** What about the OTA after incubation [9] of the same molecule?
**A.** < 2 ppb

**Q.** And the “inhibition of activity in the hydrolysis of OTA” value ([6]; 8 mM CaCl2, enzyme purified from the Amano™ lipase product)?
**A.** around 40%

**Q.** What about the “inhibition of activity in the hydrolysis of OTA” value ([6]; 8 mM CaCl2, enzyme purified from the broth of transgenic A. niger) of the same molecule?
**A.** around 40%

**Q.** And the “inhibition by extra EDTA” value ([6]; data not shown)?
**A.** inhibited

**Q.** What about the OTA decrease ([10]; 160 ng/ml amidase 2 mat, 30 min, pH 7.0, 40° C.) of the same molecule?
**A.** 83%

**Q.** And the specific activity ([10]; pH7.0 and 40° C., OTA 1 μg/ml reaction mixture, calculated from linear region of FIG. 15)?
**A.** 900 nanomole OTA hydrolyzed per min per mg protein

**Q.** And the “remaining OTA” value [11]?
**A.** less than 2 ppb

— US9113649B2, “Food additive comprising an amidase for detoxifying ochratoxin” (DuPont Nutrition Biosciences ApS, priority 2010, dated 2015)
